Target: isolated iron-loaded transferrin C-lobe (Fe-C-lobe)
Test: biosensor binding assay (SPR), equilibrium analysis

“soluble human transferrin receptor 1 (TfR) ectodomain, wild type (from UniProt P02786) D125K” gave a Kd (KD1) of 1000 nM, a ratio to parent (KD1) of 1.2 and a Kd (KD2) of 2600 nM. For the same substance, the ratio to parent (KD2) was 0.8.
For “soluble human transferrin receptor 1 (TfR) ectodomain, wild type (from UniProt P02786) F760A”, the Kd (KD1) was 1900 nM, the ratio to parent (KD1) was 2.4 and the Kd (KD2) was 2700 nM. For the same substance, the ratio to parent (KD2) was 0.8.
In the case of “soluble human transferrin receptor 1 (TfR) ectodomain, wild type (from UniProt P02786) R651A”, the ratio to parent (KD1, KD2 relative to wild-type, single entry) is reported as > 1000.
“soluble human transferrin receptor 1 (TfR) ectodomain, wild type (from UniProt P02786) Y123S” showed a Kd (KD1) of 800 nM, a ratio to parent (KD1) of 1 and a Kd (KD2) of 5700 nM. It also gave a ratio to parent (KD2) of 1.7.
